Measured values: the DeepSol protein solubility set

Test: soluble on expression in E. coli; label from the status in PepcDB or PDB records

Soluble on expression in E. coli, soluble:
MNHLGKTEVFLNRFALRPLNPEELRPWRLEVVLDPPPGREEVYPLLAQVARRAGGVTVRMGDGLASWSPPEVLVLEGTLARMGQTYAYRLYPKGRRPLDPKDPGERSVLSALARRLLQERLRRLEGVWVEGLAVYRREHARGPGWRVLGGAVLDLWVSDSGAFLLEVDPAYRILCEMSLEAWLAQGHPLPKRVRNAYDRRTWELLRLGEEDPKELPLPGGLSLLDYHASKGRLQGREGGRVAWVADPKDPRKPIPHLTGLLVPVLTLEDLHEEEGSLALSLPWEERRRRTREIASWIGRRLGLGTPEAVRAQAYRLSIPKLMGRRAVSKPADALRVGFYRAQETALALLRLDGAQGWPEFLRRALLRAFGASGASLRLHTLHAHPSQGLAFREALRKAKEEGVQAVLVLTPPMAWEDRNRLKALLLREGLPSQILNVPLREEERHRWENALLGLLAKAGLQVVALSGAYPAELAVGFDAGGRESFRFGGAACAVGGDGGHLLWTLPEAQAGERIPQEVVWDLLEETLWAFRRKAGRLPSRVLLLRNGRVPQDEFALALEALAREGIAYDLVSVRKSGGGRVYPVQGRLADGLYVPLEDKTFLLLTVHRDFRGTPRPLKLVHEAGDTPLEALAHQIFHLTRLYPASGFAFPRLPAPLHLADRLVKEVGRLGIRHLKEVDREKLFFV, GMEVNQPDIVAQVQAAFVEYERALVENDIEAMNALFWHTPETVRYGIAEVQHGGEAIRAWRERCEPVPKSRKLHRTVVTTFGTDFATVSTEFTSDATPLLGRQMQTWARLSPADGWKIVAAHVSLIAMP, MLSKFVVVEVSNSNNTMTLVEYLVTHGFDKFAVVTDLVDHPSFKYKDGSSSPESPSTTASTAAQHTPPRTAVSTPTSINTPVPPHQNKQRHSIDKIAANLSTKKVSPSSIEKQLQRTSHNPLHQLSTPHALSQLQKLLEEQHKINQMNIQKKEQERQQAEIQRILLQQANAAQINHSFGLERLTPEYDDNHHSETISKASSEDLKTEPDSTDFGLGTSDDQVRASMLHLLHPVFAPAFGMLDAENIFGAASKPTTPASKRRNTDSNGAPSKKHRWLPVNELEESRSSRGKNCGRVHCKATYKCALCGKPTTLNSTGSRWNLLRHVIMIHSDCKPYKCWDCDFTGIKSNVISHARQCRHNAEDAHDITTDEMRAEWNLRLHECFPDYVRAKERGWQPEEVTVKKEEVEESPTLVKQELTLVKQEPTFAEQLEPMAQPLV, MAWTSTLPAHLLNLIKNSKYVHVATCSKDCIPSVALMNYIYVPGEKLFGQTDNKNDYIIFVSPQDTQKFYNIKENPKVALLFHDWIIANNLSVGKESISGTPTPTSIPHEEQRQSELLNLLQELNQAELNQMSASIGGETEIVNPESEESKYYKDLILKANPDAKAFIFEKNTAVVKVRIDNARVSNNENRTMFLSKGKS, MILPDRKQILDRELIRRIADTTISGSGHSDGLSEYASIRKAAFAFVESAVLGDQAYSPIENAELAFIVWILAALDENIITARTIIKARDTVEKQLRLVEHYEDLEEFGSRLGIEISVFGEQIGKDHLYRIGVADFATYASRVTGSKYRLSNQIVREGYVYVDEDVMAKVLREAFVSFMFDTLDQIRKEDAIETIKSVLDDLEKIRESYRKAHNVRMIAGKGDASMFPPCMKEIIKNLESGVNVSHMGRLALASFLHKAGYSEDEIVPYFRNAPDFDENITRYQIKHISGEISGTEYTPPKCETMRSNHLCYMDDDPLCHREWMKHPLTYYEVKRRNRKIRLEHHHHHH, MSLRTEEEMFQLIMDVAKQEEHIRAVGMVGSRTNVKAPKDSFQDFDIVYIVEPCAEFFETATWIAKFGQPLIMQRPKEMTLFPTEPKTRETFLMLFEDGQRIDLTLCPLAEKDNWHEGDSLAIILLDKDENLPPLPVASDKNYTVTVPDQQQFNDCCNEFWWVSTYVVKGLCRNELFYAVTHLYEYCQQELLRLLSWQAAWQEPEPISVGKQFKYLKNYVTPDTMDQLASLLDFSSKEACWNSLIKTQAFFDVVAQDFAKMAQFTYHLQEAKKVTEYTNSLRLKDLQGKEGHHHHHH, MRRTVRYILATSNPMGDLEALEKFVKLAPDTGADAIALIGNLMPKAAKSRDYAAFFRILSEAHLPTAYVPGPQDAPIWEYLREAANVELVHPEMRNVHETFTFWRGPYLVAGVGGEIADEGEPEEHEALRYPAWVAEYRLKALWELKDYPKIFLFHTMPYHKGLNEQGSHEVAHLIKTHNPLLVLVAGKGQKHEMLGASWVVVPGDLSEGEYSLLDLRARKLETGNVR, MSLRESMRIELELQTDNFTVIPYNHQYYLASAIYNKIHSANPAYAKRLHNYQKFKFFTFSLLQIRKRVIRKEGIETIDGKAYLYISSPNNEFIENFVAGLLEDGKLRVGNVEFFVRKAKILPIPKKFNILKTISPIYLKTMIETEDGLKTYDLLPNNSKFYENLKNNLKKKYEAFYNEKCDMNFEFEVLKFRPKRMRIKNDIYCRCSEMVFKVWGDYDLIKFGYECGFGEKNSMGFGMVVNVEDKNQKNKKLKTKIEGHHHHHH, SMSEHSAIVTWKRKDSEAFTDNQYSRAHTWEFDGGSKILASASPHVVPVPLSVEANVDPEEAFVAALSSCHMLVFLSIAAKQRYLVESYTDNAVGILGKNSKGKTSVTKVVLRPQVVFSGTSKPTLQQLEKMHHLAHENCFIANSVETEVVTEII, MLKYEHIAKQLNAFIHQSNFKPGDKLPNVTQLKERYQVSKSTIIKALGLLEQDGLIYQAQGSGIYVRNIADANRINVFKTNGFSKSLGEHRMTSKVLVFKEMATPPKSVQDELQLNADDTVYYLERLRFVDDDVLCIEYSYYHKEIVKYLNDDIAKGSIFDYLESNMKLRIGFSDIFFNVDKLTSSEASLLQLSTGEPCLRYHQTFYTMTGKPFDSSDIVFHYRHAQFYIPSKK, MGSIGSMGKPIEGFLVAAIQFPVPIVNSRKDIDHNIESIIRTLHATKAGYPGVELIIFPEYSTQGLNTAKWLSEEFLLDVPGKETELYAKACKEAKVYGVFSIMERNPDSNKNPYNTAIIIDPQGEIILKYRKLFPWNPIEPWYPGDLGMPVCEGPGGSKLAVCICHDGMIPELAREAAYKGCNVYIRISGYSTQVNDQWILTNRSNAWHNLMYTVSVNLAGYDNVFYYFGEGQICNFDGTTLVQGHRNPWEIVTGEIYPKMADNARLSWGLENNIYNLGHRGYVAKPGGEHDAGLTYIKDLAAGKYKLPWEDHMKIKDGSIYGYPTTGGRFGK

Soluble on expression in E. coli, not soluble:
MIIRETERLILREWKESDRDLFREINADEKVMEFFPFRRSHAEADAVLETINGMIRGSGYGFYAMELRETGEVMGFCGISPVMNLDPPFPIGTMEIGWRLATRFWGHGYVTEAAQSLLVMAFDEKETPEIVSFAVHDNHRSTAVMERIGLRRDPSRDFDHPRVPEETHPHLRPHVTYALTLEEWRAR, MSCFVTVGSTLFEDLINQVLCEASLENLKKIGVKKIRLQIGKGNFNQDVIDRVFGETSGDEGSVKCDGLDIDYYRYKPSLSEDMAEALIVIGHGGAGTCLEVLALHLPFITVTNDKLMDNHQAELAVQLSDEGYLLQCTPSTLPETILKENLFSLRQFAAPSKKFVAEHIKQLVGIKNH, MSRQRLGKSMIKANSWSSNLNAYRILQEPQSLTEEPPPIQTICPVQPESMAPPEHHNHRHLVTQEENRGRHLVGNPMRRTRSDVGAHGLTPHQPLLTRSKSDHGLERVATPLAFEVQSVGSEQTASSAEVMTAAGRRHSLLTDYQAAIARPLDLDRVLAAVKLRAAAEIYCKKNNLARLSPRPPRTSAGNQRLDALVNRPVDELIAEVQAAPRKFSRTQLTDVAQRHLLAALNIDIDQYKKGVHKAGLYEGLHSVAGRLVSVAAAAVSAGVSEVPGVSKTVTKTVKILSHQLPSSVVNPALTGGLRSVTDVMESFKRVGGLPVLSPQIDKSPDMGKIVKAAREMRGQLDEAVGHFARAHKSDPQALPRLVDAFLALHGVADRQYRRRIGLNRTQTYGKGWGMAVNGVAAIGTVVSTTVPVVGQVAGPAILASTIPLQWGAGYLDERRNKHRYNLRANTKWGDFLKDNAANIHFKDLTVEHISESKLRQSFLTQPEVQIAAIREVYEDTIGELMRRRLEMQKDIDVQREAGRPMRALALKQLRELDAEIDVTKMHADQFESFNMDRWSAIPEDSVIGRCLDDLDNLQKANRRARLRKPGEGAQIVQRYVQAFQGGVSTGTTLPVVDAVASIDSFHVHDSQGHDHGLQPAPLAVAAGTGAAGGAVFTGATGEVRMSKADNKKIMTQLRVDPEVYTADAEHWRFRAGNRDVDLRTSAGYKQHAHTRWDELALVAQALKHGLTSGPVGLKNLAVAKVELRQARASLQSALDALAASGLPHRTPDSARAPTISSMKDQLYDYSEVRRHLGV, MSLDPVGPISDEETSYYVRLQYNGEFLPLFTKVDGITYKKDKSDYSPLKPSFIAGGGAFGYKMDDIRVDVEGVYSYLNKNDVKDVTFDPANTIADSVTAISGLVNVYYDIAIEDMPITPYIGVGVGATYISTPLEPAVNDQKSKFGFAGQVKAGVSYDVTPEVKLYAGARYFGSYGANFDGKKTDPKDSTRQVTDAGAYKVLYSTVGAEAGVAFNFEGHHHHHH, MSTSQPREQFLLISALGPNPMELTTLLCRACVESRCAVVSSRLTRHGEFSALVLQISGSWDALARLEGSLPALTKRGDITLSMTRSNAHVTRAQALPYVAYVSAVYRPDILNELCQFFIDHNIELENLTCDTYQAPHTNTTMLNATITVTLPAGTQISWLRDQFLDFADALNLDALIEPWRPQHP, MSIRILPENEIKPSASAFEIPPLLFANPKNLYTRRAKRLRELAKNNPLRDYLEFAAHLVDIQLTLLETAPIGNYAEKLTAYLTENQGQKPLNKQQFARDEKWLELLLALIKQCKPYATGAILTTLEFLEKASYAELNNLADHLLNERYEQVSPDQSVFIWLALSLYWTQLAQQLPRHTQAEIGERHTCPVCGSAPITSVIHLDKTQGLRYLHCALCESEWNMTRAQCSNCDESGDLNYWSFDTVEAPIKAESCGDCHSYLKVLYQEKDPYVEPLADDLASLMLDIEMEQKGFVRSGLNPFLFSIE, MGSDKIHHHHHHAGLDAVEIGTGGNPGNHHCPTDELLASEAARKEYLEKFTSRGLTISAFSCHDNPISPNKEEAAASDEILRKSIKLASLMNVPVVNTFSGTAGDSDDAKAPNWPVIPWPTVYSDIKTWQWETKLIPYWKEIGELAAASGVKIGIELHGGFLCHTPYTILKLREETNDAIGVNLDPSHLWWQGIDPVGAIKILGKAGAIHHFHAKDTYLDQDNINMYGLTDMQPYGDVQTRSWTFRSVGCGHSLTEWSDIMSALRTYGYDYVVSIEHEDPLMSIDEGFDRAVTNLQSILIKDKPLDMWWA, MGSDKIHHHHHHMQYREFGRTGVKTSLLGFGAMRLPVIGEDHSNIDEEKAIEMIRYAIDHGVNYVDTAYPYHGGNSEKVVGKALKDGYREKVFLATKSPVWQVEKHEDFERILDEQLEKLQTDHVDMYLMHALNKERWEKIKNLRFSDFFEKAKAKGKIRFAGFSFHDSYPVFKEIVDGYDWDFCQIQLNYMDVNYQAGLRGLKYAGSKGLAVVIMEPLKGGKLARLPEKVMEILRKYNKNWSPVELSFRWIGHHPEVSTILSGMSTLEQVKQNIDIMSKITPGNLTDEDMKMIEEIRKTLESFAVINCTQCGYCMPCPNGVDIPGNFRLYNETVMFEDWEGGRRTYKWLESQKSAASFCVECGECLSKCPQKLDIPNLLKKVHRELAEVK, MAHHHHHHMNKDTICAWCFDVLKYELKNEKFDKVPPLIQSLHNDGFKIPFFVKWMKLNDVKDMGSYNYDAYELNGCIGCLGETDIMELRYYALESSLNDTRFYPITLKDFPFLIVTITYLFNFEKCAHVYDWVIGKHGIKISFVANKRRYSSTFLPEVASQHNFDHQTTVKKLIRKANYRGEINDELLENIEVERYEGVSCSLTHVDYERV
